In the RNAGym collection of RNA variant scans (doi:10.7554/elife.80360):

B1: HDV Ribozyme (parent)
chain: GGCCGGCAUGGUCCCAGCCUCCUCGCUGGCGCCGGCUGGGCAACAUUCCGAGGGGACCGUCCCCUCGGUAAUGGCGAAUGGGACCCA

Variants of: B1
Experiment: self-cleavage, relative activity (ratio to wild type); higher = more cleavage; co-transcriptional

Variant | self-cleavage
GGCCGGCAUGGUCCCAGCCUCCUCGCUGGCGCCGGCUGCGCAACAUUCCGAGGGGACCGUACCCUCGGUAAUGGCGAAUGGGACCCA [G39C C61A] | 0.192
GGCCGGCAUGGUCCCAGCCUCCUCGCUGGCGCCGGCUGCGCAACAUUCCGAGGGGACCGUCCCCUCGGUAAUGGCGAAUGGGUCCCA [G39C A83U] | 0
GGCCGGCAUGGUCCCAGCCUCCUCGCUGGCGCCGGCUGCGCAACAUUCCGAGGGGACCGUCCCCUCGGUAAUGGCGAAUGGGGCCCA [G39C A83G] | 0.317
GGCCGGCAUGGUCCCAGCCUCCUCGCUGGCGCCGGCUGCGCAACAUUCCGAGGGGACCGUCCCCUCGGUAAUGGCGAAUGGGCCCCA [G39C A83C] | 0.243
GGCCGGCAUGGUCCCAGCCUCCUCGCUGGCGCCGGCUGCGCGACAUUCCGAGGGGACCGUCCCCUCGGUAAUGGCGAAUGGGACCCA [G39C A42G] | 0.0811
GGCCGGCAUGGUCCCAGCCUCCUCGCUGGCGCCGGCUGCGCUACAUUCCGAGGGGACCGUCCCCUCGGUAAUGGCGAAUGGGACCCA [G39C A42U] | 0.227
GGCCGGCAUGGUCCCAGCCUCCUCGCUGGCGCCGGCUGCGCAACAUUCCGAGGGGACCGUCUCCUCGGUAAUGGCGAAUGGGACCCA [G39C C62U] | 0.237
GGCCGGCAUGGUCCCAGCCUCCUCGCUGGCGCCGGCUGCGCAACUUUCCGAGGGGACCGUCCCCUCGGUAAUGGCGAAUGGGACCCA [G39C A45U] | 0.0475
GGCCGGCAUGGUCCCAGCCUCCUCGCUGGCGCCGGCUGCGCAACCUUCCGAGGGGACCGUCCCCUCGGUAAUGGCGAAUGGGACCCA [G39C A45C] | 0.198
GGCCGGCAUGGUCCCAGCCUCCUCGCUGGCGCCGGCUGCGCAACAUUCCGAGGGGACGGUCCCCUCGGUAAUGGCGAAUGGGACCCA [G39C C58G] | 0.277
GGCCGGCAUGGUCCCAGCCUCCUCGCUGGCGCCGGCUGCGCAACAUUCCGAGGGGACCGUCCCCUCGGUAAUGGCGAAUGGGACCCA [G39C] | 0.245
GGCCGGCAUGGUCCCAGCCUCCUCGCUGGCGCCGGCUGCGCAACAUUCCGAGGGGACCGUCCCCUCGGUAGUGGCGAAUGGGACCCA [G39C A71G] | 0.158
GGCCGGCAUGGUCCCAGCCUCCUCGCUGGCGCCGGCUGCGCAACAUUCCGAGGGGACCGUCCCCUCGGUAUUGGCGAAUGGGACCCA [G39C A71U] | 0.229
GGCCGGCAUGGUCCCAGCCUCCUCGCUGGCGCCGGCUGCGCAACAUUCCGAGGGGGCCGUCCCCUCGGUAAUGGCGAAUGGGACCCA [G39C A56G] | 0.356
GGCCGGCAUGGUCCCAGCCUCCUCGCUGGCGCCGGCUGCGCAACAUUCCGAGGGGUCCGUCCCCUCGGUAAUGGCGAAUGGGACCCA [G39C A56U] | 0.13
GGCCGGCAUGGUCCCAGCCUCCUCGCUGGCGCCGGCUGCGCAACAUUCCGAGGGGCCCGUCCCCUCGGUAAUGGCGAAUGGGACCCA [G39C A56C] | 0.18

Variant | self-cleavage
GGCCGGCAUGGUCCCAGCCUCCUCGCUGGCGCCGGCUGCGCAACAUUCCGAGGGGACCGUCCCCUCGGUAAUGGCGUAUGGGACCCA [G39C A77U] | 0.121
GGCCGGCAUGGUCCCAGCCUCCUCGCUGGCGCCGGCUGCGCAACAUUCCGAGGGGACCGUCCCCUCGGUAAUGGCGCAUGGGACCCA [G39C A77C] | 0.0519
GGCCGGCAUGGUCCCAGCCUCCUCGCUGGCGCCGGCUGCGCAACAUUCCGCGGGGACCGUCCCCUCGGUAAUGGCGAAUGGGACCCA [G39C A51C] | 0.291
GGCCGGCAUGGUCCCAGCCUCCUCGCUGGCGCCGGCUGCGCAACAUUCCGGGGGGACCGUCCCCUCGGUAAUGGCGAAUGGGACCCA [G39C A51G] | 0.38
GGCCGGCAUGGUCCCAGCCUCCUCGCUGGCGCCGGCUGCGCAACAUUGCGAGGGGACCGUCCCCUCGGUAAUGGCGAAUGGGACCCA [G39C C48G] | 0.262
GGCCGGCAUGGUCCCAGCCUCCUCGCUGGCGCCGGCUGCGCAACAUUUCGAGGGGACCGUCCCCUCGGUAAUGGCGAAUGGGACCCA [G39C C48U] | 0.405
GGCCGGCAUGGUCCCAGCCUCCUCGCUGGCGCCGGCUGCGCAUCAUUCCGAGGGGACCGUCCCCUCGGUAAUGGCGAAUGGGACCCA [G39C A43U] | 0
GGCCGGCAUGGUCCCAGCCUCCUCGCUGGCGCCGGCUGCGCAGCAUUCCGAGGGGACCGUCCCCUCGGUAAUGGCGAAUGGGACCCA [G39C A43G] | 0.147
GGCCGGCAUGGUCCCAGCCUCCUCGCUGGCGCCGGCUGCGCACCAUUCCGAGGGGACCGUCCCCUCGGUAAUGGCGAAUGGGACCCA [G39C A43C] | 0.138
GGCCGGCAUGGUCCCAGCCUCCUCGCUGGCGCCGGCUGCGCAAGAUUCCGAGGGGACCGUCCCCUCGGUAAUGGCGAAUGGGACCCA [G39C C44G] | 0
GGCCGGCAUGGUCCCAGCCUCCUCGCUGGCGCCGGCUGCGCAAAAUUCCGAGGGGACCGUCCCCUCGGUAAUGGCGAAUGGGACCCA [G39C C44A] | 0.271
GGCCGGCAUGGUCCCAGCCUCCUCGCUGGCGCCGGCUGCGGAACAUUCCGAGGGGACCGUCCCCUCGGUAAUGGCGAAUGGGACCCA [G39C C41G] | 0.462
GGCCGGCAUGGUCCCAGCCUCCUCGCUGGCGCCGGCUGCGCAACAUUCCGAGGGGAACGUCCCCUCGGUAAUGGCGAAUGGGACCCA [G39C C57A] | 0.141
GGCCGGCAUGGUCCCAGCCUCCUCGCUGGCGCCGGCUGCGCAACAUUCCGAGGGGACCGUCCCCUCGGUAAUGGCGAAUGGGACCCG [G39C A87G] | 0.204
GGCCGGCAUGGUCCCAGCCUCCUCGCUGGCGCCGGCUGCGCAACAUUCCGAGGGGACCGUCCCCUCGGUAAUGGCGAAUGGGACCCC [G39C A87C] | 0.323
GGCCGGCAUGGUCCCAGCCUCCUCGCUGGCGCCGGCUGCGCAACAUUCCGAGGGGACCGUCCCCUCGGUAAUGGCGAUUGGGACCCA [G39C A78U] | 0.131
